Results on 12 sequences are retold here after a protein production outcome set (Wang et al. 2014).

A short description of the series: label from the status in PepcDB records.
Turning to “MKTVVIGAGLGGLLSAARLSKAGHEVEVFERLPITGGRFTNLSYKGFQLSSGAFHMLPNGPGGPLACFLKEVEASVNIVRSEMTTVRVPLKKGNPDYVKGFKDISFNDFPSLLSYKDRMKIALLIVSTRKNRPSGSSLQAWIKSQVSDEWLIKFADSFCGWALSLKSDEVPVEEVFEIIENMYRFGGTGIPEGGCKGIIDALETVISANGGKIHTGQEVSKILIENGKAAGIIADDRIHDADLVISNLGHAATAVLCSEALSKEADAAYFKMVGTLQPSAGIKICLAADEPLVGHTGVLLTPYTRRINGVNEVTQADPELAPPGKHLTMCHQYVAPENVKNLESEIEMGLEDLKEIFPGKRYEVLLIQSYHDEWPVNRAASGTDPGNETPFSGLYVVGDGAKGKGGIEVEGVALGVMSVMEKVLGLEHHHHHH”, the protein production result is on record as “not failed”. For “MKTWIFICMSIAMLLWFLSTLRRKPSQKKGCIDAIIPAYNEGPCLAQSLDNLLRNPYFCRVICVNDGSTDNTEAVMAEVKRKWGDRFVAVTQKNTGKGGALMNGLNYATCDQVFLSDADTYVPPDQDGMGYMLAEIERGADAVGGIPSTALKGAGLLPHIRATVKLPMIVMKRTLQQLLGGAPFIISGACGMFRTDVLRKFGFSDRTKVEDLDLTWTLVANGYRIRQANRCIVYPQECNSPREEWRRWRRWIVGYAVCMRLHKRLLFSRFGIFSIFPMLLVVLYGVGIYLTTWFNEFITTGPHGVVLAMFPLIWVGVVCVIGAFSAWFHRCWLLVPLAPLSVVYVLLAYAIWIIYGLIAFFTGREPQRDKPTRYSALVEASTAYSQPSVTGTEKLSEA”, the protein production entry was “failed”.

On to “MKVAGDKIKQARKLKKITQSELANGICTQATISNIENRNLCDSLDIFSSICLRLDLEVEECMMISEEKKIENLLNKVEDLSLRLFHLEAYNLLQEVPEGLILSNNELTTKLLYYKGITCLLGKKDKAEALFYLYRGAEIDRKVNIYNILSLNALGTLYELEKDMRKAQVYYEKSLQELEQFKLECSLERCRIYYNSAKFYSEMKDYQKSVILSEKGIQICRDKHSIYLLDYLLYEKAFNKQMLGEDTADDYRQAYYFTQFFGNTEVLQYIEKDMKAFNISY”, for which the protein production result is given as “failed”. With “MKVAIMGAGAVGCYYGGMLARAGHEVILIARPQHVQAIEATGLRLETQSFDEQVKVSASSDPSAVQGADLVLFCVKSTDTQSAALAMKPALAKSALVLSLQNGVENADTLRSLLEQEVAAAVVYVATEMAGPGHVRHHGRGELVIEPTSHGANLAAIFAAAGVPVETSDNVRGALWAKLILNCAYNALSAITQLPYGRLVRGEGVEAVMRDVMEECFAVARAEGVKLPDDVALAIRRIAETMPRQSSSTAQDLARGKRSEIDHLNGLIVRRGDALGIPVPANRVLHALVRLIEDKQQHG”, the protein production result is “not failed”.

On to “MKVDDTEEASQKPEDILAQGKDEARLSLEERRKLFQSKGLSAEESLVSVSTEDTLFQKEEDSKVYPLSMTWSFGWNSSLPVYYMREDRRVILYTCAHTAIMYDVVRNTQYHLQGHPNIISCLCVSEDRRWIATADEGPDCLIIIWDSFTGIPVHTIFDSCPEGNGMRSIAITRDSKFLATISDSATQKVCIWKWTLAVETPACTLELPKEYGFQDNLVFNPANNKELVSNSKTQAIYYCWFEDKGILAHSAPVLTEKTFNKLVGKFSQSVFHLKLPQVLSATKEGKLVVWDIHYPSSTSSSAISAFPFIKPRKLVHLQKEAITVLMTIDSYIVTGDIKGNIKFYDHTLSVVNWYSNFKLGAIRTLSFSKTIPSLPTEKSNLPTDCTLRGDLFVVRNFIIGTFDATVYHMTVDGTKLEKLFVEPRDAVYAVSCHPYQPLIAVGSVCGMIKVWDFEKKVYLFSRTFEKGLGVQCLTYNPEGALLGAGFTEGTVYILDAMSLENESPEPFKYSKSSVSHCCFSHDSNYMATADVNFTVAVYMVVVKNGQRVWEYLARLRSHQNSIQSLLFGVHLDSNEPRLLSLGKDRFLIEYNLVKSCKDHLDVLDVHRTDQGNYPTCMIWYPPLTKELFLLICNSGYKVKLFNATTKMCRKTLLGPAYGSPIEHAQVLPVKSTLELQKRYLVFINKDKVGLQILPVDGNPHKTCAIVCHPNGVAGMALSYDGRFAFTAGGQDRSVVQWKINLGALEAAVSLGGEDLTPFYGLVSGGREGKFYRELEDYFYYSQIRSQGIDTMETRQVSEHICLSELPFVMRAIGFYPSEEKIEDMFNEIKFSEYVETGKLIDKINLPDFLKVYLNHRPPFGNTMDGIQNSFNVLGYTNSEGKKAIRREDFLNLLLTKGEHMTEEEMIDCFSTLFGLTPEGWKSEPAATCINGPEICLQKELPEEITAEIFTTEILGLTLSDSSEQLIQ”, for which the protein production entry is listed as “failed”. With “MKVFDVHKFDMKKEQDFLQVQFNLKNRINLSPTIHPDSINTGAGVDLAYWEQDGEPYGVCCIIVIDADTKEVIEKVHSMGRISVPYVSGFLAFRELPLIIEAAKKLETEPDVFLFDGNGYLHYNHMGVATHAAFFLGKPTIGIAKTYLKIKGCDFVTPEIEVGAYTDIIIDGEVYGRALRTRRDVKPIFLSCGNYIDLDSSYQITMSLINQESRLPIPVRLADLETHVLRTFYQKNHVLEHHHHHH” the entry was “not failed”; with “MKVFITGGTGFVGSAVVQELVANGFEVVGLARSETSAQKLISWGAQPVRGSLTSLSTLATAAAQADAIIHLGFNNDFRHFFQAGAMDRRAIETMGRAISGTNKPLVVTYGTTGIRKHVETEHEVADTGLLKWLTPRKSEIVARQLMAQNINAFVVRLSPAVHGAGDMGFTRTVIERAKKSHRAEYFGLGTHAWSAVHRLDAAHLFYLVTMYGLEHPTTNERVFNAVAEESITIAAIARTISRKLNVPLKAKYNPLSFGDTAMLYLINCPTSSQLTRQILGWVPVQPDLLTDISSSRYLEHHHHHH”, “failed”. The result for “MKVFTEKIPNIPWEERPEGYTGPVWRYSKNPIIGRNPVPKGARVFNSAVVPYNGEFVGVFRIDHKNTRPFLHFGRSKDGINWEIEPEEIQWVDVNGEPFQPSYAYDPRVVKIEDTYYITFCTDDHGPTIGVGMTKDFKTFVRLPNAYVPFNRNGVLFPRKINGKYVMLNRPSDNGHTPFGDIFLSESPDMIHWGNHRFVLGRSSYNWWENLKIGAGPYPIETSEGWLLIYHGVTLTCNGYVYSFGAALLDLDDPSKVLYRSRYYLLTPEEEYETVGFVPNVVFPCAALCDADTGRVAIYYGAADTHVALAFGYIDEIVDFVKRNSM” reads “not failed”.

With “MKVIEVTHPIQSNQFITENVAMAFGFFDGMHRGHDKVFQVLDEKAKEHQLKKAVMTFDPHPSVVLNPERKRTTYLTPLSDKLEMIAEHGIDYCIVINFSSRFANVTSDDFIKNYIINNHVKEVIAGFDFTFGKFGKGNMTVLQESKAFNTTIVGKQEMDSEKISTTAIRQALTDGHLQKANDELGYIYRIKGTVVQGEKRGRTIGFPTANVQPSDDYVLPKKGVYAVSMEIGPESKLHRGVANVGVKPTFHDPTRAELVIEVNIFDFNENIYGERVTVYWHHFLRPEVKFDGIDPLVKQMNEDKAQAKHLLSIDFDDDISYNI”, the protein production result was “failed”. Regarding “MKVIILGSGSYSGTPKPLCTCENCTRARINPAFRRTRFSVYIEGGILIDPGPDLHYHLEKLNKEVETILITHAHFDHIFGLPDAQVFKKLTIASNPLGIKVARSLAMLAFNSEAPLGNDWDYVELKFWNEYKVNGVKVIHFPVVHSIEMAGGFLIERKNKTVAITGDTGPEIIRDSEVIDLIKGSDLLISEMTHKESIPKTHLGVNDAIELAKIVKAEQTVFAHISHSNYPQEILEKKVREAKISGIVARDFTIIEI”, the protein production entry is listed as “failed”. For the sequence “MKVIKGLTAGLIFLFLCACGGQQIKDPLNYEVEPFTFQNQDGKNVSLESLKGEVWLADFIFTNCETICPPMTAHMTDLQKKLKAGNIDVRIISFSVDPENDKPKQLKKFAANYPLSFDNWDFLTGYSQSEIEEFALKSFKAIVKKPEGEDQVIHQSSFYLVGPDGKVLKDYNGVENTPYDDIISDVKSASTLK”, the protein production entry was “not failed”. In the case of “MKVKIGLKCSDCEDINYSTTKNAKTNTEKLELKKFCPRENKHTLHKEIKLKS”, the protein production result is listed as “failed”.
